# B1: Palivizumab (antibody, V domains shown)
# VH: QVTLRESGPALVKPTQTLTLTCTFSGFSLSTSGMSVGWIRQPPGKALEWLADIWWDDKKDYNPSLKSRLTISKDTSKNQVVLKVTNMDPADTATYYCARSMITNWYFDVWGAGTTVTVSS
# VL: DIQMTQSPSTLSASVGDRVTITCKCQLSVGYMHWYQQKPGKAPKLLIYDTSKLASGVPSRFSGSGSGTEFTLTISSLQPDDFATYYCFQGSGYPFTFGGGTKLEIK
# Columns and labels:
# [1] = biological target: T1, Rat B7-H4 protein (R&D Systems 10085-B7) (rat, UniProt Q501W4 29-257, limits assumed); experiment: ELISA, coated rat B7-H4, mean of two studies
# T1 construct: Bought protein
# T1 sequence (looked up): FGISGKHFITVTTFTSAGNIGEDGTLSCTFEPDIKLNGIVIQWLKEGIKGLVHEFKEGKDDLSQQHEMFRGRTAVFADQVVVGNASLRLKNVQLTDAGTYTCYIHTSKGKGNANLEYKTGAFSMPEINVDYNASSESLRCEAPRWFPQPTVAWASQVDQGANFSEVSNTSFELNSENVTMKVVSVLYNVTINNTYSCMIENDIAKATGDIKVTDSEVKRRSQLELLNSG
# [2] = biological target: T2, Human B7-H4 on the cell surface (MX-1, HCC1569, CAMA-1 cells); HEK-293 cells stably transfected with human … (human, UniProt Q7Z7D3 25-282); experiment: flow cytometry, HEK-293 cells stably transfected with human B7-H4, mean of two experiments
# T2 construct: The cell line of each result is named under assay or readout; also called cell surface B7-H4
# T2 sequence: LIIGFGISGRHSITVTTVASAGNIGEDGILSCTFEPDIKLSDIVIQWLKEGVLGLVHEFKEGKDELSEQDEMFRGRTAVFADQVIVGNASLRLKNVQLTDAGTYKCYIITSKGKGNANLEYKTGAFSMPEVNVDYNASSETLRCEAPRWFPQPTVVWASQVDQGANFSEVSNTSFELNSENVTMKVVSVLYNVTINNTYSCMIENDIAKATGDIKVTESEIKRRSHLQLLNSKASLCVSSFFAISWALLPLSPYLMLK
# [3] = biological target: T3, Monkey B7-H4 protein (Creative Biomart; VTCN1-1519R) (monkey); experiment: ELISA, coated monkey B7-H4, mean of two studies
# T3 construct: Bought protein
# [4] = biological target: T4, Mouse B7-H4 protein (Creative Biomart; VTCN1-1519R) (mouse, UniProt Q7TSP5 25-257); experiment: ELISA, coated mouse B7-H4, mean of two studies
# T4 construct: Bought protein
# T4 sequence (looked up): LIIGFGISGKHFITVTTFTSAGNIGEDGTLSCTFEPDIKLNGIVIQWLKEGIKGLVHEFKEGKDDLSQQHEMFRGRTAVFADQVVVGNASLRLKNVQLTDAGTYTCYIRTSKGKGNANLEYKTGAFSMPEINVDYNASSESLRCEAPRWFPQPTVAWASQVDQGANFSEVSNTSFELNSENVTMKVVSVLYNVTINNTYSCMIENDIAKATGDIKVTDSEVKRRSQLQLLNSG
# [5] = biological target: T5, Recombinant human B7-H4 protein (R&D Systems #6576-B7-050) (human, UniProt Q7Z7D3 29-258); experiment: ELISA, coated human B7-H4, mean of two studies
# T5 construct: Bought protein
# T5 sequence: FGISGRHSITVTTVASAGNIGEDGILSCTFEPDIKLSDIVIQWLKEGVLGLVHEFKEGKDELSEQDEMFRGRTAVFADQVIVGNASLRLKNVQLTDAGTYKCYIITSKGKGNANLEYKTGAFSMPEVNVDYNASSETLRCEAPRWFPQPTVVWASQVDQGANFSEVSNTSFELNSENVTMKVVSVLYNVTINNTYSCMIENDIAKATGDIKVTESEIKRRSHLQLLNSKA
# [6] = biological target: T5, Recombinant human B7-H4 protein (R&D …); experiment: ELISA, coated recombinant human B7-H4
# [7] = biological target: T2, Human B7-H4 on the cell surface (MX-1, …); experiment: flow cytometry, MX-1 cells
# [8] = biological target: T5, Recombinant human B7-H4 protein (R&D …); experiment: ELISA, coated recombinant human B7-H4; remark: listed apart in the source
# [9] = biological target: T2, Human B7-H4 on the cell surface (MX-1, …); experiment: flow cytometry, MX-1 cells, mean of two experiments
# [10] = biological target: T5, Recombinant human B7-H4 protein (R&D …); experiment: ELISA, coated recombinant human B7-H4; remark: listed apart in the source
binder,measurement,setting,value
B1,EC50,[1],> 100 nM
same,EC50,[2],> 100 nM
same,EC50,[3],> 100 nM
same,EC50,[4],> 100 nM
same,EC50,[5],> 100 nM
same,EC50,[6],> 100 nM
same,EC50,[7],> 200 nM
same,EC50,[8],> 100 nM
same,EC50,[9],> 100 nM
same,EC50,[10],> 100 nM
